Results published in US20080227698A1, “OLIGOPEPTIDES FOR TREATMENT OF OSTEOPOROSIS AND OTHER BONE DISEASES AND METHODS THEREOF” (Washington University, priority 2005, published 2008).

Target: LRP5 (Homo sapiens, UniProt O75197)
Assay: ^125I-Mesd binding to HEK293 cells transiently transfected with LRP5
Settings: ^125I-Mesd 5 nM, 4 hours at 4° C., HEK293 cells transfected with Myc-tagged LRP5
Protocol: Cells (2×10^5) were seeded into 12-well dishes 1 day prior to assay. Ligand-binding buffer (minimal Eagle's medium containing 0.6% BSA with a different concentration of radioligand, 0.6 ml/well) was added to cell monolayers, in the absence or the presence of 500 nM unlabeled RAP or 500 nM unlabeled Mesd, followed with incubation for 0-4 hours at 4° C. Thereafter, overlying buffer containing unbound ligand was removed, and cell monolayers were washed and lysed in low-SDS lysis buffer (62.5 mM Tris-HCl pH 6.8, 0.2% SDS, 10% v/glycerol) and counted.
To determine whether Mesd binds to other members of the LDLR family, ^125I-Mesd binding analysis was performed with four groups of cells expressing different members of the LDLR family (FIG. 2). In the first experiment, HEK293 cells were transiently transfected with cDNAs for the LDLR, LRP5, LRP6 or empty pcDNA3 vector. […]

LRP5, sequence (O75197 32-1615): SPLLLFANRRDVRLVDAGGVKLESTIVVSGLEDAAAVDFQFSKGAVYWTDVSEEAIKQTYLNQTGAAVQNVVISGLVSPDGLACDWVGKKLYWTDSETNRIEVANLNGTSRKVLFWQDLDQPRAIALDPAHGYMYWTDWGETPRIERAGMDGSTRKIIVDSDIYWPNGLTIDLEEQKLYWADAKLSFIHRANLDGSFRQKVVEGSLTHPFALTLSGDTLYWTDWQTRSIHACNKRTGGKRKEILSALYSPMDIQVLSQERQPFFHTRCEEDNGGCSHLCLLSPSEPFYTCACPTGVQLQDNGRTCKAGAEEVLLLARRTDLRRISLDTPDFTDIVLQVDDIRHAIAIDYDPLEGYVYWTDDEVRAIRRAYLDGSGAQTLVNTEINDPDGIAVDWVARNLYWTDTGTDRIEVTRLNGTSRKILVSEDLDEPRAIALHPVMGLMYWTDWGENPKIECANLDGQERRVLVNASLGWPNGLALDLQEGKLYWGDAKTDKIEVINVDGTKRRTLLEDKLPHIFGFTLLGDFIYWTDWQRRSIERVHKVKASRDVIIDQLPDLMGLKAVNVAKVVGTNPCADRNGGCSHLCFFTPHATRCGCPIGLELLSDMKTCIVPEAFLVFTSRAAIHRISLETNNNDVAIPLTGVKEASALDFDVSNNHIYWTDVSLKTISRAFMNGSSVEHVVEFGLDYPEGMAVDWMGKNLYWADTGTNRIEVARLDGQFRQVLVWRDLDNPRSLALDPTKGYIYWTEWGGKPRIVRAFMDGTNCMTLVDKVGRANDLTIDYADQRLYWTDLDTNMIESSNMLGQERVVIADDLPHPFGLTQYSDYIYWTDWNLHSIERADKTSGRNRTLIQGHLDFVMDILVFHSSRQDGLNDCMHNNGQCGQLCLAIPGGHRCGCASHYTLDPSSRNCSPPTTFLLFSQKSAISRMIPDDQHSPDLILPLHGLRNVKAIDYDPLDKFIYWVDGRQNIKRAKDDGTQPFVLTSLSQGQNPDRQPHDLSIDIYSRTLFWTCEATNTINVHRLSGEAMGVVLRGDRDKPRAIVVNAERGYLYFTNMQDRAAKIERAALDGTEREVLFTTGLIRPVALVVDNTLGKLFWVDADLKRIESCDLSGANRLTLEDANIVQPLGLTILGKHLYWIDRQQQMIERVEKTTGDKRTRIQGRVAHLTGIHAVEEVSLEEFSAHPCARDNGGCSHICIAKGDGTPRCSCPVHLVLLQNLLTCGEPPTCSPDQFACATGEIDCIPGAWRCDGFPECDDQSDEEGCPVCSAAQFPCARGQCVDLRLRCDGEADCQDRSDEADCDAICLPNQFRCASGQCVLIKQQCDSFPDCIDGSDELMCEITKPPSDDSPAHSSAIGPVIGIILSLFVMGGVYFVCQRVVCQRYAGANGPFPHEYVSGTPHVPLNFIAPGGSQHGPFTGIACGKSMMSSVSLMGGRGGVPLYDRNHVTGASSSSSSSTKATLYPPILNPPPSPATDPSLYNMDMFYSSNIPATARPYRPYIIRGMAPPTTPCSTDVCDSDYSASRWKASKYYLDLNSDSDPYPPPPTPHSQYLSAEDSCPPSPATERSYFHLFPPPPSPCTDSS

B1: Mesd: recombinant wild-type mouse Mesd, polyhistidine tail at the N-terminus, lacks the signal peptide, expressed in E. coli (protein)
chain: ADTPGEATPPPRKKKDIRDYNDADMARLLEQWEKDDDIEEGDLPEHKRPSAPIDFSKLDPGKPESILKMTKKGKTLMMFVTVSGNPTEKETEEITSLWQGSLFNANYDVQRFIVGSDRAIFMLRDGSYAWEIKDFLVSQDRCAEVTLEGQMYPGKGGGSKEKNKTKPEKAKKKEGDRKPRASKEDNRAGSRREDL
modifications: left off: small tags and cut ends
notes: recombinant wild-type mouse Mesd, polyhistidine tail at the N-terminus, lacks the signal peptide, expressed in E. coli
Specific ^125I-Mesd binding to LRP5: specifically binds to Mesd, albeit at lower levels compared to LRP6
